What was measured:
[1] = target: angiotensin I converting enzyme (ACE); test: cell-based or functional assay
[2] = target: angiotensin I converting enzyme (ACE); test: cell-based or functional assay; remark: listed apart in the source

| IC50 value in µM, Modified Matsui assay (ACE inhibition, cleavage of Hip-His-Leu) [1] [µM] | IC50 value in µM, at-line ACE assay (ACE inhibition, cleavage of hippuryl-His-Leu) [1] [µM] | IC50 value in the Modified Matsui test (ACE inhibition) [2] [µM] | Binder |
| --- | --- | --- | --- |
| 10 | 50 |  | ITP [tripeptide Isoleucine-Threonine-Proline (Ile-Thr-Pro)] |
| 0.4 | 3.8 | 0.5 | MAP [tripeptide Methionine-Alanine-Proline (Met-Ala-Pro)] |
| 2 | 7.1 |  | IPP [tripeptide IPP] |

— patent publication US20090143311A1 (published 2009)
